The record followed here is article PMC7141811.

Test [1] concerns the target mEGFP-CaMKII-α (human Ca2+/calmodulin-dependent protein kinase II α, Avitag-linker-mEGFP-linker-CaMKII-α) (human) (UniProt Q9UQM7).
Test [2] has the same target. In words: single-molecule pull-down with TIRF colocalisation; mEGFP-CaMKII-α and mCherry-CaMKII-β* co-transfected in HEK 293T cells (α:β* 3:1 and 1:1); biotinylated holoenzymes captured from 100-200x diluted lysate on streptavidin-coated glass; colocalisation of green and red spots; data not shown.

Chain of UniProt Q9UQM7 (Q9UQM7 whole entry): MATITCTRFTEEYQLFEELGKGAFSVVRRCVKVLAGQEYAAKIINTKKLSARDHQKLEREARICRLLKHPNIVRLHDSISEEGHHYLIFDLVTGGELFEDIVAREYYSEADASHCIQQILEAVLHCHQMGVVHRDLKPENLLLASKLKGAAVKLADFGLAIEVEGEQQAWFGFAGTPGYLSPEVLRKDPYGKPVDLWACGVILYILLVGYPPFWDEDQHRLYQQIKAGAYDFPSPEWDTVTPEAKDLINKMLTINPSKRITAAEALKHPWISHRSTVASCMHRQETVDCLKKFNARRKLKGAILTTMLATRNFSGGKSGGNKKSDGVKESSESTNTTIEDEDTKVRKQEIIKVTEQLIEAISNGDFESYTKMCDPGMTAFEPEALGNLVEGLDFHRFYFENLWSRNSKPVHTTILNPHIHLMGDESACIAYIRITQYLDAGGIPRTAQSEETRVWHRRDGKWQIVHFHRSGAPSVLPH

The substance “calmodulin (Ca2+/calmodulin) (from UniProt P62157 1-149) (natural protein)” had an EC50 of CaMKII-α activation (autophosphorylation at Thr 286 of glass-immobilised holoenzymes, single-molecule TIRF) by Ca2+/CaM, 20 nM to 5 μM, 100 μM Ca2+, ATP in test [1] of 50 to 100 nM.

Substance “mCherry-CaMKII-β* (CaMKII-α in which the kinase-hub linker is replaced by that from CaMKII-β) (enzyme)” gave a percent colocalization of red and green spots (heterooligomeric holoenzymes) in test [2] of 80%.
